Measurements taken from patent US6602687B1, “DNA encoding human ciliary neurotrophic factor and method for producing the protein encoded thereby” (Regeneron Pharmaceuticals, Inc., priority 1989, dated 2003).
Read-outs that look alike come from different tables or passages of the source.

How the values were obtained:
[1] = system: Ventral spinal cord neurons; assay: Neurofilament (NF) assay in ventral spinal cord neuron cultures; format: cell-based, rat; conditions: CNTF 10 ng/ml, NGF 50 ng/ml at plating; day 7
Experimental: Sprague-Dawley rats (HSD or Zivic-Miller) were used for all experiments. Pregnant rats (E14) were sacrificed as described in 10.1.1.
Spinal cords were removed aseptically from rat embryos as described in 10.1.2. The cord tissues were minced into small pieces and incubated in 0.1% trypsin (GIBCO) and 0.01% deoxyribonuclease type 1 (Sigma) at 37° C. for 20 minutes. Trypsin solution was then removed, rinsed and replaced with medium consisting of 45% Eagle's minimum essential medium (MEM), 45% Ham's nutrient mixture F12 (F12), 5% fetal calf serum (GIBCO), 5% horse serum (GIBCO) glutamine (2 mM), penicillin G (0.5 U/ml), and streptomycin (0.5 ug/ml). […] Total cell number yielded was determined by hemocytometer counting in the presence of trypan blue. […]
After fixation of the cells in 4% paraformaldehyde at 4° C. for 2 hours, the cultures were then permeabilized and blocked according to the procedures described in Doherty et al. (1984, J. Neurochem. 42:1116-1122). Neurofilament protein was detected using a monoclonal antibody RT97 (Wood and Anderton, 1981, Biosci. Rep. 1:263-268) at a 1:1000 dilution. The reaction product was visualized using O-phenylenediamine (OPD) as a substrate and optical density was measured at 490 nm.

[2] = system: chick embryonic spinal motorneurons; assay: Survival of chick embryonic spinal motorneurons in culture; format: cell-based
Outline: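 Lumbar spinal motorneurons from embryonic day 6 chick, metrizamide-purified, plated at 1000-2000 cells/well on polyornithine/laminin in horse serum-containing L-15 at 37 °C, 5% CO2. Samples added 1 h after plating; survival scored as large phase-bright cell counts relative to initial counts taken at 3 h.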

B1: CNTF: ciliary neurotrophic factor; recombinant rat CNTF in Sections 10, 15, 17, purified rat sciatic nerve CNTF in Section 11; see endpoint conditions (protein, UniProt P20294 1-200, looked up)
Ciliary neurotrophic factor: MAFAEQTPLTLHRRDLCSRSIWLARKIRSDLTALMESYVKHQGLNKNINLDSVDGVPVASTDRWSEMTEAERLQENLQAYRTFQGMLTKLLEDQRVHFTPTEGDFHQAIHTLMLQVSAFAYQLEELMVLLEQKIPENEADGMPATVGDGGLFEKKLWGLKVLQELSQWTVRSIHDLRVISSHQMGISALESHYGAKDKQM
[1]
  increase in NF content versus untreated controls: 2.0 fold
[2]; 3 days in culture
  concentration at which the highest survival effect was obtained: 1 ng/mL
[2]; 3 days in culture, CNTF = recombinant rat
  highest survival effect of the concentration-response curve: 64%
[2]; after 3 days in culture, mean ± SEM (n = 4), IGF-I 1 μg/ml, Basic FGF 30 ng/ml, CNTF 1.5 ng/ml
  Motoneuron survival (%): 60.7 ± 5.8%
[2]; after 3 days in culture, one concentration per molecule, Table VI, CNTF rat, rec.
  Survival: + + +
[2]; motorneuron survival, 3 days in culture
  EC50: 0.023 ng/mL
[2]; recombinant rat CNTF, day 3
  EC50 (the concentration required for 50% survival): about 20 pg/ml
[2]; recombinant rat CNTF, day 3, read-out: EC50 (the concentration required for 50% survival)
  EC50: ~1 pM
